Measured values reported in PMC3713617.
Numbering of substitutions follows the chain as printed. Read-outs that look alike come from different tables or passages of the source.

How the values were obtained:
[1] = target: Helicobacter pylori ferric uptake regulator, wildtype (HpFurWT) (H. pylori) (UniProt O25671); test: cross-linking
HpFurE5A [2] = target: T1, HpFurE5A (Helicobacter pylori, UniProt O25671 1-150, E5A); test: competition
T1 sequence: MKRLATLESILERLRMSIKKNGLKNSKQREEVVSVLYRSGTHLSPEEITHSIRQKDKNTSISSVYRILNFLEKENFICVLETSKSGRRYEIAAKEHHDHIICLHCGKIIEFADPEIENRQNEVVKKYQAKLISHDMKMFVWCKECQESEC

HpFurH134Y [3] = target: T2, HpFurH134Y (Helicobacter pylori, UniProt O25671 1-150, H134Y); test: fluorescence anisotropy
T2 sequence: T1 sequence with A5E, H134Y

HpFurWT [4] = target: T3, HpFurWT (Helicobacter pylori, UniProt O25671 1-150); test: fluorescence anisotropy
T3 sequence: T1 sequence with A5E

HpFurE5A [5] = target: T1, HpFurE5A; test: fluorescence anisotropy
HpFurA92T [6] = target: T4, HpFurA92T (Helicobacter pylori, UniProt O25671 1-150, A92T); test: fluorescence anisotropy
T4 sequence: T1 sequence with A5E, A92T

HpFurH134Y [7] = target: T2, HpFurH134Y; test: fluorescence anisotropy; remark: listed apart in the source
HpFurWT [8] = target: T3, HpFurWT; test: fluorescence anisotropy; remark: listed apart in the source
HpFurA92T [9] = target: T4, HpFurA92T; test: fluorescence anisotropy; remark: listed apart in the source
HpFurA92T [10] = target: T4, HpFurA92T; test: competition

“Helicobacter pylori ferric uptake regulator, wildtype (HpFurWT) (from UniProt O25671 1-150) (natural protein)” gave a stoichiometry N [1] of 2.

B1: amiE Fur box scrambled (GT repeats) (dsDNA)
DNA 1: TGCCCCGTGTGTGTGTGTGTATTAA
DNA 2: TTAATACACACACACACACGGGGCA
B1: no binding (HpFurE5A [2]).

B2: amiE Fur box duplex (dsDNA)
DNA 1: TGCCCCAATAATCATAATGATTAA
DNA 2: TTAATCATTATGATTATTGGGGCA
Molecule B2 has a Kd (HpFurH134Y [3]) of 6 ± 1 nM, a Kd (HpFurWT [4]) of 16 ± 2 nM and a Kd (HpFurE5A [5]) of 2 ± 1 nM. It also gave a Kd (HpFurA92T [6]) of 15 ± 2 nM.

B3: pfr apo-Fur binding site duplex (dsDNA)
DNA 1: TTCATTATCATTTATGCTAT
DNA 2: ATAGCATAAATGATAATGAA
Molecule B3 has a Kd (HpFurH134Y [7]) of 8 ± 1 nM, a Kd (HpFurWT [8]) of 43 ± 2 nM and a Kd (HpFurA92T [9]) of 13 ± 1 nM.

B4: pfr scrambled (GT repeats) (dsDNA)
DNA 1: TTCATTAGTGTGTATGCTAT
DNA 2: ATAGCATACACACTAATGAA
B4: no binding (HpFurA92T [10]).
